Target: InlPΔLRR5-GST fusion protein (Listeria monocytogenes)
Experiment: pull-down; GST or GST fusion bait on Glutathione Sepharose 4B incubated overnight with MDCK cell lysate; beads boiled in SDS sample buffer; Western blot with anti-afadin antibody

In the case of afadin (MDCK cells) (natural protein), the fold decrease of afadin binding against InlP-GST is reported as > 10 fold.
